1 protein from PMC8539536, “Generation of a Soluble Form of Human Endoglin Fused to Green Fluorescent Protein” (International Journal of Molecular Sciences, 2021) can be followed below.

This data set concerns the molecule itself. Kind of data set: SDS-PAGE under reducing and nonreducing conditions with Western blot; 3-day culture medium of CHO-K1 transfectants separated under reducing or nonreducing conditions; immunodetection with anti-GFP antibodies; positions of dimer and monomer compared.

B1: endoglin–GFP fusion protein (extracellular domain of human endoglin fused with EGFP, from pEGFP–N1/Eng.EC) (domain or fragment, UniProt P17813 26-586, looked up)
chain: ETVHCDLQPVGPERGEVTYTTSQVSKGCVAQAPNAILEVHVLFLEFPTGPSQLELTLQASKQNGTWPREVLLVLSVNSSVFLHLQALGIPLHLAYNSSLVTFQEPPGVNTTELPSFPKTQILEWAAERGPITSAAELNDPQSILLRLGQAQGSLSFCMLEASQDMGRTLEWRPRTPALVRGCHLEGVAGHKEAHILRVLPGHSAGPRTVTVKVELSCAPGDLDAVLILQGPPYVSWLIDANHNMQIWTTGEYSFKIFPEKNIRGFKLPDTPQGLLGEARMLNASIVASFVELPLASIVSLHASSCGGRLQTSPAPIQTTPPKDTCSPELLMSLIQTKCADDAMTLVLKKELVAHLKCTITGLTFWDPSCEAEDRGDKFVLRSAYSSCGMQVSASMISNEAVVNILSSSSPQRKKVHCLNMDSLSFQLGLYLSPHFLQASNTIEPGQQSFVQVRVSPSVSEFLLQLDSCHLDLGPEGGTVELIQGRAAKGNCVSLLSPSPEGDPRFSFLLHFYTVPIPKTGTLSCTVALRPKTGSQDQEVHRTVFMRLNIISPDLSGCTSKG
notes: then a linker of 19 amino acids and 239 residues of GFP, 844 amino acids in all; Disulfide-linked dimer of ~275 kDa; glycosylated; also called Eng–GFP; source: CHO-K1, stably transfected with pEGFP–N1/Eng.EC, secreted, in culture medium; not shown: EGFP, C-terminal, kept
For orientation: stoichiometry N means the number of molecules, sites or subunits per partner or assembly. With B1, the “stoichiometry N” value was 2.
